Measurements published in patent US5700777A, “Fatty acid - pulmonary surfactant conjugates” (Abbott Laboratories, priority 1995, dated 1997).

B1: SPB(1-78): synthetic full length SP-B peptide, sequence based on natural SP-B (peptide, UniProt P07988 201-279, looked up)
Pulmonary …: FPIPLPYCWLCRALIKRIQAMIPKGALAVAVAQVCRVVPLVAGGICQCLAERYSVILLDTLLGRMLPQLVCRLVLRCSM
modifications: Pulmonary surfactant-associated protein B

Key:
Type in all cases: physicochemical
[1] = Modified Wilhelmy surface balance (Langmuir trough): dynamic surface tension versus compressed surface area; conditions: for Surface activity of admixtures, in words: data of Tables 2 and 3 (Wilhelmy balance, King-Clements, pulsating bubble); for Wilhelmy-Langmuir Trough Equilibrum (equilibrium adsorption value): after a three (3) minute spreading time, total peptide 0.5 mg/ml; for Wilhelmy-Langmuir Trough Equilibrum (equilibrium adsorption value) / Wilhelmy-Langmuir Trough Max (maximum dynamic surface tension) / Wilhelmy-Langmuir Trough Min (minimum dynamic surface tension): 37° C.; for Wilhelmy-Langmuir Trough Max (maximum dynamic surface tension) / Wilhelmy-Langmuir Trough Min (minimum dynamic surface tension): peptide/lipid admixture, total peptide 0.5 mg/ml (two peptides: 0.25 mg/ml each), 675 μg phospholipid, seven compression-expansion cycles, average of 3 runs
Description: The dynamic surface tension lowering properties of the peptide/lipid admixtures were studied using a modified Wilhelmy Surface Balance (Langmuir Trough). The instrument consists of an all Teflon trough and movable Teflon ribbon (dam) barrier system which completely contains and defines a variable surface area. Surface area was varied through the use of a constant rate reversible 3-phase motor to drive the Teflon barrier. A Cahn 2000 electrobalance (Cahn Instruments, Cerittos, CA) with a sandblasted 1 cm platinum plate and stainless steel hangdown wire was employed to determine the surface tension at the liquid-air interface. The entire apparatus was situated in a thermostated incubator set at 45° C. Surface area-surface tension measurements were made by adding 950 ml of 0.15M NaCl to the trough. Subphase temperature was controlled during the measurements at 36°-38° C.
For each experiment 27 ul of peptide/lipid admixture was applied in a random array of 13 (.congruent.2 ul) droplets to the surface of the temperature controlled subphase and allowed to spread spontaneously for 3 minutes. (The 27 ul application corresponds to 675 ug of phospholipid). The trough surface area was then cycled from a maximum (445 sq. cm) to a minimum (178 sq. cm) surface area and back to maximum at a cycling rate of 3 cycles/min (compression ratio 2.5:1). The dynamic surface tension vs surface area was recorded for 7 complete compression-expansion cycles for each application.

[2] = Adsorption rate, King-Clements system (Wilhelmy balance with stirred round Teflon dish); conditions: 10 ml of diluted sample (1:50) added under constant agitation to 70 ml saline subphase; 37° C.
Experimental: A procedure similar to that described by Notter, et al., Pediatric Res. 16, 515-519, (1982) was employed to determine the absorption rate in the absence of diffusion resistance. The modified Wilhelmy surface balance as described above was used. However, instead of using a Langmuir trough a round Teflon dish (5.1 cm diameter) was employed. The subphase, 70 ml of 0.15M NaCl, was allowed to equilibrate to 37° C. in the incubator and was continuously stirred with a Teflon coated magnetic stirer. An aliquot of the peptide/lipid admixture containing 5 mg of total phospholipid was dispersed in 10 ml of 0.15M NaCl by vortexing for 10 seconds. This dispersion was then added to the saline subphase. Surface tension lowering was monitored using a strip chart recorder connected to the electrobalance output and data collected for 20 minutes.

[3] = Pulsating bubble surfactometer (PBS) surface tension; conditions: after 100 cycles (5 minutes, 20 cycles/minute); phospholipid 1 mg/ml; 37° C.; diluent […] NaCl; mean of triplicate
Experimental: The PBS equipment (Electronetics, Buffalo, N.Y.) used was essentially equivalent to that described in detail by G. Enhorning, J. Appld. Physiol. 43, 198-203, (1977). Recordings were made of the pressure gradient across the wall of a small air bubble, communicating with ambient air by means of a narrow chimney stack, but otherwise entirely surrounded by a 40 ul volume of the peptide/lipid admixture. The admixture concentration employed for these studies was 1 mg/ml total phospholipid (0.02 mg/ml total peptide) and the diluent was 0.15M NaCl. Immediately prior to loading the sample chamber, the diluted samples were sonicated for 15 seconds to remove any gas nuclei.
The pressure drop across the air-water interface was measured during pulsation by a pressure transducer, and the corresponding surface tension determined through the application of Young's law and the Laplace equation. Measurements were all made at 37° C. and the bubble pulsed at 20 cycles/minute to render respectively a maximum (1.1 mm) and a minimum (0.8 mm) bubble diameter. (This compression/expansion corresponds to a 50% change the surface area of the air-water interface).

Molecule	Surface activity of admixtures, in words [1]	Wilhelmy-Langmuir Trough Equilibrum (equilibrium adsorption value) [1] [dynes/cm]	Wilhelmy-Langmuir Trough Max (maximum dynamic surface tension) [1] [dynes/cm]	Wilhelmy-Langmuir Trough Min (minimum dynamic surface tension) [1] [dynes/cm]	King-Clements Adsorption (adsorption surface tension) [2] [dynes/cm]	Surface Tension Values Maximum (pulsating bubble apparatus) [3] [dynes/cm]	Surface Tension Values Minimum (pulsating bubble apparatus) [3] [dynes/cm]
C-14 (Myristic acid)-SP-C (FGIPCCPVHLKRLLIVVVVVVLIVVVIVGALLMG; Pulmonary surfactant-associated protein C N-terminal myristic acid; UniProt P11686 24-57, looked up, fragment) [C14 -SPC(1-34), myristic acid (C14) covalently attached to the N-terminal end of synthetic human SP-C(1-34)]	unusual surface activity						
C-16 (Palmitic acid)-SP-C (FGIPCCPVHLKRLLIVVVVVVLIVVVIVGALLMG; Pulmonary surfactant-associated protein C N-terminal palmitic acid; UniProt P11686 24-57, looked up, fragment) [C16 -SPC(1-34)]	unusual surface activity						
SPB(53-78): synthetic C-terminal SP-B fragment, sequence based on natural SP-B (YSVILLDTLLGRMLPQLVCRLVLRCS; Pulmonary surfactant-associated protein B; UniProt P07988 253-278, looked up, fragment) [reference compound]		40.0	49.3	0.1	45.0	55.5	4.9
B1		38.0	45.0	0.0	30.0	49.0	4.2
